Results from paper PMC5275738.

Molecular target: SF3b145(598–631) fragment, tag-free recombinant (isotope-labeled) (human) (UniProt Q13435)
Test: NMR titration

Sequence of UniProt Q13435 (Q13435 598-631): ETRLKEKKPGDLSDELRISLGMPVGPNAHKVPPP

Substance: human SF3b49 RRM1 (Pro5–Leu96), tag-free (from UniProt Q15427 5-96) (domain or fragment)
- Kd: 50 µM
